According to EP4745157A1 (Korea Research Institute of Bioscience and Biotechnology, dated 2026):
Values belong to the binder of their own block, whether it stands above or below them.

Columns and labels:
[1] = target: T1, TM4SF5-Fc antigen protein (UniProt O14894); assay: Biacore, TM4SF5-Fc immobilized directly on the chip
T1 sequence (looked up): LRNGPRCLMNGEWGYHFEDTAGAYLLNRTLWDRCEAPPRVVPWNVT

[2] = target: T2, TM4SF5 (antigen of SPR/BIACORE/ELISA, construct not stated) (UniProt O14894); assay: BIACORE
T2 sequence (looked up): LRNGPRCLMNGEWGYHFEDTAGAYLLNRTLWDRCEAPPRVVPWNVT

[3] = target: T3, hEC2-Fc-myc antigen (human) (UniProt O14894); assay: ELISA, IgG against hEC2-Fc-myc
T3 sequence (looked up): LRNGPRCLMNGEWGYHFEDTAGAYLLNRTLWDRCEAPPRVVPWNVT

[4] = target: T3, hEC2-Fc-myc antigen (human); assay: Octet (BLI), IgG against hEC2-Fc-myc
[5] = target: T2, TM4SF5 (antigen of SPR/BIACORE/ELISA, construct not stated); assay: SPR
[6] = target: T4, TM4SF5 (antigen of SPR/BIACORE/ELISA, construct not stated) (UniProt O14894 112-157, limits assumed); assay: SPR
T4 construct: also called TM4SF5 target
T4 chain (looked up): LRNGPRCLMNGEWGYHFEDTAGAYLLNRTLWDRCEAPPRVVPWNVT

fold improvement of antigen-binding affinity against parent huAb27-9 [1]: 3 fold
B1: huAb27-9_E01 IgG (antibody, V domains shown)
VH: EVQLVQSGADVKEPGASVKVSCKASGYTFTDYEMHWVRQAPGQGLEWMGAIDPETGGTAYNQKFKGWVTMTADKSISTAYMELSRLRSDDTAVYYCTRPYLGYWGQGTLVTVSS
VL: EIVLTQSPGMLSLSPGERATLSCRSSQSLVHRNGNTYLHWYQQKPGQAPRLLIYKVSNRFSGIPDRFSGSGSGTDFTLTISRLEPEDFAVYYCFQGSHIPLTFGQGTKVEIKR

fold reduction in affinity against S43 [2]: 1.5 fold
B2: S43 (G2) (antibody, V domains shown, not shown: a dimerising Fc or GST)
VH: QVQLVQSGAEVKKPGASVKVSCKASGYRFTDYEMHWVRQAPGQGLEWMGAIDPAFGGTAYNQKFKGRVTMTADKSISTAYMELSRLRSDDTAVYYCARPYLGYWGQGTLVTVSS
VL: EIVLTQSPGTLSLSPGERATLSCRSSQSLVHSNGNTYLHWYQQKPGQAPRLLIYKVSNRFSGIPDRFSGSGSGTDFTLTISRLEPEDFAVYYCFQGSHIPLTFGQGTKVEIKG

fold improvement of EC50 relative to huAb27-9 [3]: 41.4 fold | fold improvement of KD relative to huAb27-9 [4]: 12.6 fold
B3: 2-1 IgG (antibody, V domains shown)
VH: QVQLVQSGAEVKKPGASVKVSCKASGYTFTDYEMHWVRQAPGQGLEWMGAIDPETGGTFVVSKFKGRVTMTADKSISTAYMELSRLRSDDTAVYYCARPYLGYWGQGTLVTVSS
VL: EIVLTQSPGTLSLSPGERATLSCRSSQSLVHSNGNTYLHWYQQKPGQAPRLLIYKVSNRFSGIPDRFSGSGSGTDFTLTISRLEPEDFAVYYCFQGSHIPLTFGQGTKVEIK

Kd [5]: 7.23 nM | fold difference in affinity against Ab27 scFv-Fc [5]: 1.4 fold
B4: huAb27-9 scFv-Fc (Fc fusion, part only; not given: linker, domain order, hinge-Fc, not shown: another chain or arm of the molecule; a dimerising Fc or GST; small tags and cut ends)
VH: QVQLVQSGAEVKKPGASVKVSCKASGYTFTDYEMHWVRQAPGQGLEWMGAIDPETGGTAYNQKFKGRVTMTADKSISTAYMELSRLRSDDTAVYYCARPYLGYWGQGTLVTVSS
VL: EIVLTQSPGTLSLSPGERATLSCRSSQSLVHSNGNTYLHWYQQKPGQAPRLLIYKVSNRFSGIPDRFSGSGSGTDFTLTISRLEPEDFAVYYCFQGSHIPLTFGQGTKVEIK

fold improvement in affinity against EO1 [2]: 2 fold
B5: EO1 H(G)L(GG) (antibody, V domains shown, not shown: a dimerising Fc or GST)
VH: EVQLVQSGADVKEPGASVKVSCKASGYTFTDYEMHWVRQAPGQGLEWMGAIDPETGGTAYNQKFKGWVTMTADKSISTAYMELSRLRSDDTAVYYCTRPYLGYWGQGTLVTVSS
VL: EIVLTQSPGMLSLSPGERATLSCRSSQSLVHRNGNTYLHWYQQKPGQAPRLLIYKVSNRFSGIPDRFSGSGSGTDFTLTISRLEPEDFAVYYCFQGSHIPLTFGQGTKVEIKG

fold improvement of KD relative to huAb27-9 [4]: 7.7 fold | Kd [6]: 3.94 nM | fold improvement of KD against chimeric Ab27 [6]: ~4 fold | fold improvement of KD against humanized Ab27-hz9 [6]: ~2.4 fold
B6: 1-5 IgG (antibody, V domains shown)
VH: QVQLVQSGAEVKKPGASVKVSCKASGYTFTDYEMHWVRQAPGQGLEWMGAIDPETGGTFVKRKFKGRVTMTADKSISTAYMELSRLRSDDTAVYYCARPYLGYWGQGTLVTVSS
VL: EIVLTQSPGTLSLSPGERATLSCRSSQSLVHSNGNTYLHWYQQKPGQAPRLLIYKVSNRFSGIPDRFSGSGSGTDFTLTISRLEPEDFAVYYCFQGSHIPLTFGQGTKVEIK
notes: IgG; also called T1-5

Kd [6]: 4.19 nM | fold improvement of KD against chimeric Ab27 [6]: ~4 fold | fold improvement of KD against humanized Ab27-hz9 [6]: ~2.4 fold
B7: S43 IgG (antibody, V domains shown)
VH: QVQLVQSGAEVKKPGASVKVSCKASGYRFTDYEMHWVRQAPGQGLEWMGAIDPAFGGTAYNQKFKGRVTMTADKSISTAYMELSRLRSDDTAVYYCARPYLGYWGQGTLVTVSS
VL: EIVLTQSPGTLSLSPGERATLSCRSSQSLVHSNGNTYLHWYQQKPGQAPRLLIYKVSNRFSGIPDRFSGSGSGTDFTLTISRLEPEDFAVYYCFQGSHIPLTFGQGTKVEIK
notes: IgG1; also called huAb27-9_M74; M74

Kd [6]: 9.46 nM
B8: huAb27-9 IgG (antibody, V domains shown)
VH: QVQLVQSGAEVKKPGASVKVSCKASGYTFTDYEMHWVRQAPGQGLEWMGAIDPETGGTAYNQKFKGRVTMTADKSISTAYMELSRLRSDDTAVYYCARPYLGYWGQGTLVTVSS
VL: EIVLTQSPGTLSLSPGERATLSCRSSQSLVHSNGNTYLHWYQQKPGQAPRLLIYKVSNRFSGIPDRFSGSGSGTDFTLTISRLEPEDFAVYYCFQGSHIPLTFGQGTKVEIKR
notes: IgG1 format; also called Hz#9 IgG; Hz #9 IgG
